We go through 30 sequences from the nanobody polyreactivity screen of Harvey et al. (2022).

The data set can be described thus: yeast display, Sf9 membrane polyspecificity reagent, FACS + sequencing; frameworks hold sequencing errors. Put shortly:
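Using colony PCR, genes from sorted yeast display clones were amplified, then sequenced on MiSeq at 2 × 250 and filtered by CDR length. The clones had been stained with 10% biotinylated, detergent-solubilized Sf9 membrane reagent for 1 hour at 4 °C and sorted by FACS into low and high (top ~1%) gates on anti-HA and streptavidin fluorescence. Polyreactivity labels come from the gate of origin.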
For the sequence “QDQLVESGGGLVQAGGSLRLSCAASGFIFLPYVMGWYRQAPGKERELVAAISGGGGITYYADSVKGRFTISRDNAKNTVYLQMNSLKPEDTAVYYCAARRQRFGYWGQGTQVTVSS”, the “polyreactivity (PSR sort gate)” value is “low polyreactivity”.

With “QVQLVESGGGLVQAGGRLRLSCAASGGTFVPYAMGWYRQAPGTERELVARISKRGGTTYYADSVKGRFTISRDTAKNTVYLQMNSVKPEDTAVYYCGAVLPARGYYWGEGTQVTVSS”, the “polyreactivity (PSR sort gate)” value is on record as “high polyreactivity”.

Consider “QVQLVESGGGLVQAGGSLRLSCAASGRIFYSYAMGWYRQAPGKERELVAAITRSVARTYYADSVKGRFTISRDNAKNTVYLQMNCLKPEDTAVYYCAADWYQWGGRYYAPRYYYWGQGTQVTVSS”, for which the “polyreactivity (PSR sort gate)” value is “high polyreactivity”.

Take “QVQLVDSGGGLVQAGGSLRLSCAASGRTFGGNAIGRYIQAPGKETELVAGINISGGSTNYADSVKGRFTISRDNAMNTVYLQMNSLKPEDTPVYYCNADTAVYAWDDDYWGQGTQVTVSS”: the “polyreactivity (PSR sort gate)” value is on record as “low polyreactivity”.

On to “QVHLVESGGGLVQAGGSLRLSFAASGSTFEDNAMGWYRQAPGKERELVAGISTNGGSTSYADSVKGRFTISRDNAKNTVYLQMNSLKPEVTAVYYCAKGLYVQFDYWGQGTQVTVSS”, for which the “polyreactivity (PSR sort gate)” value was “low polyreactivity”.

Consider “QVQLVESGGGLVQAGGSLRLSCAASGSNFGYYAMGWYRQAPGQERELVAAINSSGGSTYYADSVKGRFTISRDNAKNTVYLQMNSLKPEDTAVYYCAVRTRYKFNYWGQGTQVTVSS”, for which the “polyreactivity (PSR sort gate)” value was “low polyreactivity”.

For the sequence “QVQLVESGGGLVQAGGTLRLTCAASGSIFHWNTMGWYRHAPGKESELFATITQRGGSTYYADSVKARFTLSRDNAKNTVYLQMNSLKPEDTAVYYCAAAIYRASRRRTSYSYDYWGQGTQVTVSS”, the “polyreactivity (PSR sort gate)” value is “high polyreactivity”.

For “QVQLVESGGALVQAGASLRLSCAASGRTFPLYAMGWYRQAPGKEMELVAAISARGSSTYYADSVKGRFTISRDNAKNTVYLQMNSLKAEDNAVYYCAAKRSYPYGSGYWGQGSQVTVSS”, the “polyreactivity (PSR sort gate)” value was “high polyreactivity”.

With “QVQLVESCGGLVQAGGSLRLSCASSGFIFFENAMGCYIQAPCKERELVAVISSSGTSTYYADSVKGRFTISRDNAKNTVYLQMTSLKPEDTAVYYCAKDYYRSYGREDYWGQGTQVTVSS”, the “polyreactivity (PSR sort gate)” value was “low polyreactivity”.

With “QVQLVESGGGLVQAGGSLRLSCAASGSNFVKYVMGWYRQAPGKERELDAAITWRGGRTYYADSVKGRFTISRDNEKNTVYLQMNSLKPEDTAVYYCAAYDQSLYGRRYDYWGQGTQVTVSS”, the “polyreactivity (PSR sort gate)” value is “high polyreactivity”.

For “QVQLVESGGGLVQAGGSLRLSCAASGRNFPRNVMGWYRQAPGKERELVAAITGSGSSTYYADSVKGRFTISRDIEKNTVYLQMNSLQPEDTAVYYCATIWRFKLGDYWGQGTQVTVSS”, the “polyreactivity (PSR sort gate)” value is on record as “high polyreactivity”.

For “QVQLVESGGGLVQAGGSLRLSCAASGRIFSSYAMGWYRKAPGKERELVAAIRRGGGSTSYADSVKGRFTISRDNAKNTVYLQMNSLKPEDTAVYYCAADSPRGQVHYIGGYWGQGTQVTVSS”, the “polyreactivity (PSR sort gate)” value is “low polyreactivity”.

In the case of “QVQLVESGGGLVQAGGSLRLSCASSGLTFAAYAMGWSRQAPGKERELVAAISRRGGSTYYADSVKGRFTISRDNAKNTVYLQMNSLKPEDTAVYYCAAENEVYWYDVEYWGQGTQVTVSS”, the “polyreactivity (PSR sort gate)” value is listed as “high polyreactivity”.

In the case of “QVQLVESGGGLVQAGGSLRLSCAASGFIFSTYAMGWYRQAPGKERELVASIDWSGDSTYYADSVKGRFTISRDNAKNTVYLQMTSLKPEDTAVYEFAADDASYPYIFDSYDYWGQGTQVTVSS”, the “polyreactivity (PSR sort gate)” value is “low polyreactivity”.

As for “QVQLVESGGGLVQAGGSLRLSCAASGSIFVRNAMGWYRQAPGKERELVAAISWRGGSTYYADSVKGRFTISRDNAKNTVYLQMNSLKPEDTAGYYCAARRWSPRSGLGYGYWGQGTQVTVSS”, the “polyreactivity (PSR sort gate)” value is listed as “high polyreactivity”.

As to “QVQLVESGGGLVQAGGSLRLSCAASGITFGYNAMGWYIQAPGKERELVASISYSGDSTYYADSVKGRFTISRDNAKNTVYLLMNSLKPEDTAVYYCNVRNRPGGEINDYDYWGQGTQVTVSS”, the “polyreactivity (PSR sort gate)” value is “low polyreactivity”.

Take “QVQLVESGGGLVQAGGSLRLSCAASGYTFYANAMGWYRQAPGKEREFVASITWSGGSTYYADSVKGRFTISRDNAKNTVYLQMNSLKPEDTAVYYCADESWFKYDYWGQGTQVTVSS”: the “polyreactivity (PSR sort gate)” value is given as “low polyreactivity”.

For “QVQLVEAGGGLVQAGGSLRLSCAASGNIFLYYAMGWYRQAPGKEREFVADIDSSGASTYYADSVKGRFTISRDNAKNTVYLQMNSLKPEDTAVYYCAAEFHWWYAGYDYGYWGQGTQVTVSS”, the “polyreactivity (PSR sort gate)” value is listed as “low polyreactivity”.

With “QVQLGESGGGLVQAGGSLRLSCAASGRILSVYVMGWYRQAPGKERELVAAIRRGGYTYYADSVKGRFTISRDNAKNTVYLQMNSLKQEDTAVYYCNARQRPPPYYYWGQGTQLTVSS”, the “polyreactivity (PSR sort gate)” value is recorded as “high polyreactivity”.

Take “QVQLVETGGGLVQAGGSLRLSCAASGFIFPIYAMGWYRQATGKERELVAVISGSGGSTYYADSVKGRFTISRDNAKNTVYLQMNSLKPEDTAVYYCAARGRNVAGYKGGYWGQGTQVTVSS”: the “polyreactivity (PSR sort gate)” value is “low polyreactivity”.

On to “QVQLVESGGGLVQAGGSLRLSCAASGRIFSRYVMGWYRQAPGKERELVAAISWNGGSTYYADSVKGRFRISRDNAKNTVYLQMNSLKPEDTAVYYCAARVRVTGTYYTKYDYWGQGTQVTVSS”, for which the “polyreactivity (PSR sort gate)” value was “high polyreactivity”.

On to “QVQLVESGRRLVQAGGSLRLSCAASGSTFYGYGMGWYRQAPGKERELVAAITGSGDTTYYADSVKGRFTISRDNAKNTVYLQLNSLKPEDTAVDYCNARWHAEYDYWGQGTQVTVSS”, for which the “polyreactivity (PSR sort gate)” value is “low polyreactivity”.

Turning to “QVQLVESGGGLVQAGGSLRISCAASGFTSTYYAMGWYRPAPGTERELVAAITSSGTRTYYADSVKGRFTISRDIAKKTGYLQMNSLKPEDTAVYYCNASHRKGMYYWGLGTQVTVSS”, the “polyreactivity (PSR sort gate)” value is on record as “high polyreactivity”.

With “QVHLVDSGGGLVQAGGPLRLTCPASGSTYRYTIGWYRQAPGKQRELVAAITGSAGRTYYADSVKGRFTISRDNAKNTVYLQMNSLKPEVTAVYYCNKVRPSKFWDYYYCGQGTQVTVSS”, the “polyreactivity (PSR sort gate)” value is “high polyreactivity”.

Regarding “QVQLVESGVGLVQAGGSLRLSCAASGFIFHRNAMGWYRQAPGKERELVASITKRGGNTYYADSVKGRFTISRDNAKNTVYLQMNSLKPEDTAVYYCATHLWGWDWKRDYWGQGTQVTVSS”, the “polyreactivity (PSR sort gate)” value is given as “high polyreactivity”.

For the sequence “QVQLVESGGGLVPAGGSLRLSCAASGSTFKIYAMGWYRQAPGKERELVARITSGGSTNYADSVKGRFTISRDNAKNTVYLQMNSLKPDDTAVYYCAARRWSYSTRGQRSTNLDYWGQGTQVTVSS”, the “polyreactivity (PSR sort gate)” value is “high polyreactivity”.

Turning to “QVQLVESGGGLVQAGGSLRLSCAASGLIFTTYAMGWYRQAPGKERELVAAISSSGDSTYYADSVKGRFTISRDNAKNTVYLQMNSLKPEDTAVYYCAARYYYRGYEFGYWGQGTQVTVSS”, the “polyreactivity (PSR sort gate)” value is given as “high polyreactivity”.

Turning to “QVQLVESGGGLVQAGGSLRLSCAASGLTLFRYAMGWYRQAPGKERELVAAIDYGGGTYYADSVKGRFTISRDNAKNTVYLQMNSLKPEDTAVYYCAVEPEYKYYEGDYWGQGTQVTVSS”, the “polyreactivity (PSR sort gate)” value was “low polyreactivity”.

On to “QVQLVESGGGLVQAGGSLRLSCAASGRTFIYYAMGWNRQAPGKERELVAGITYSVGSTYYADSVKGRFTISRDNEKNTVYLQMNSLKPEDTAVYYCAADATFESDWGQGTQVTVSS”, for which the “polyreactivity (PSR sort gate)” value is recorded as “low polyreactivity”.

“QVQLVETGGGLVQAGGSLRLSCAASGRIFGHYVMGWYRPAPGTERELVAAITWRGGSTYYADSVKGRFTISRDYAKNTVYLQMNSLKPEDTAVYDCNASPSEVRRRYDYWGQGTQVTVSS”: the “polyreactivity (PSR sort gate)” value is listed as “high polyreactivity”.
